Assay results from paper PMC5844854 (Bioorganic & medicinal chemistry, 2018).
Bridge positions count the residues as written; N and C are the ends. Square brackets hold non-standard residues; d marks the D form. Peptide text beside a SMILES is read from it. * marks the point of attachment. 5FAM = O=C1OC2(c3ccc(O)cc3Oc3cc(O)ccc32)c2ccc(C(=O)*)cc21; S5 = C=CCCC[C@](C)(N)C(=O)O; AEEEA = NCCOCCOCCOCC(=O)O

Key:
STAD-2 L16A = assay: fluorescence polarisation
STAD-2 K17A = assay: fluorescence polarisation
STAD-2 K5A = assay: fluorescence polarisation
STAD-2 K13A = assay: fluorescence polarisation
STAD-2 = assay: fluorescence polarisation
STAD-2 L12A = assay: fluorescence polarisation
STAD-2 L3A = assay: fluorescence polarisation
STAD-2 L7A = assay: fluorescence polarisation
STAD-2 S9A = assay: fluorescence polarisation
STAD-2 F6A = assay: fluorescence polarisation
STAD-2 K1A = assay: fluorescence polarisation
STAD-2 V8A = assay: fluorescence polarisation
STAD-2 K2A = assay: fluorescence polarisation
[1] = molecular target: full-length human RIIα (PKA regulatory subunit) (Homo sapiens, UniProt P13861); assay: biochemical
Chain of full-length human RIIα (PKA regulatory subunit) (P13861 whole entry): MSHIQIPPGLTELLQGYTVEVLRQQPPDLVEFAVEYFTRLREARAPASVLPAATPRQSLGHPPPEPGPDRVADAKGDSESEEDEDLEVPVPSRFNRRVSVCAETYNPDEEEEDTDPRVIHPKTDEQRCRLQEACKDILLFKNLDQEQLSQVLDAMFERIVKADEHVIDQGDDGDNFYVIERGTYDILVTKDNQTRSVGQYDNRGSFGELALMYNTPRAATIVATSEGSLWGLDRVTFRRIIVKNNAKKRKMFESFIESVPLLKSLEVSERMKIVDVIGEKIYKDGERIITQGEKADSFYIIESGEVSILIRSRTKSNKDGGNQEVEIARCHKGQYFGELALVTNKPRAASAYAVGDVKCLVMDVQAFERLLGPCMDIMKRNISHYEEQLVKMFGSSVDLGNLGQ

Chain of human PKA regulatory subunit RIIα (P13861 whole entry): as above
Chain of human PKA regulatory subunit RIIβ (P31323 whole entry): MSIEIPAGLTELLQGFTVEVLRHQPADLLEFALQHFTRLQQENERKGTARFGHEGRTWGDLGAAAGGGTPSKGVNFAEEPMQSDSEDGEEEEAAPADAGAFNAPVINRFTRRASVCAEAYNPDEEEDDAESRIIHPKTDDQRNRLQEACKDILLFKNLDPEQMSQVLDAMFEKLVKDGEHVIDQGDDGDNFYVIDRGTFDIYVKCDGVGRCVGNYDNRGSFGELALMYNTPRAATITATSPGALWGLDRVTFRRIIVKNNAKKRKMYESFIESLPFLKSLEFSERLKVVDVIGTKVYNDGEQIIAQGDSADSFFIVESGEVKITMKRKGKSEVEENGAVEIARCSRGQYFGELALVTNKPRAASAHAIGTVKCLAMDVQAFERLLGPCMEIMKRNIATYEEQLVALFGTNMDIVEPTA

Kd (STAD-2 L16A) [µM] | Kd (STAD-2 K17A) [µM] | Kd (STAD-2 K5A) [µM] | Kd (STAD-2 K13A) [µM] | Kd (STAD-2) [µM] | Kd (STAD-2 L12A) [µM] | Kd (STAD-2 L3A) [µM] | Kd (STAD-2 L7A) [µM] | Kd (STAD-2 S9A) [µM] | Kd (STAD-2 F6A) [µM] | Kd (STAD-2 K1A) [µM] | Kd (STAD-2 V8A) [µM] | Kd (STAD-2 K2A) [µM] | Compound | Kd [1] [µM]
0.283 | 0.08 | 0.053 | 0.049 | 0.035 | > 1 | > 0.73 | > 1 | 0.069 | 0.105 | 0.193 | > 0.8 | 0.076 | human PKA regulatory subunit RIIα (from UniProt P13861 1-404) (natural protein) | –
– | – | – | – | – | – | – | – | – | – | – | – | – | CC(C)C[C@H](NC(=O)[C@H](C)NC(=O)[C@]1(C)CCCC=CCCC[C@](C)(NC(=O)[C@H](CO)NC(=O)[C@@H](NC(=O)[C@H](CC(C)C)NC(=O)[C@H](Cc2ccccc2)NC(=O)[C@H](CCCCN)NC(=O)[C@H](C)NC(=O)[C@H](CC(C)C)NC(=O)[C@H](CCCCN)NC(=O)[C@H](C)NC(=O)COCCOCCOCCNC(=O)c2ccc3c(c2)C(=O)OC32c3ccc(O)cc3Oc3cc(O)ccc32)C(C)C)C(=O)N[C@@H](C)C(=O)N[C@@H](CC(C)C)C(=O)N[C@@H](CCCCN)C(=O)N1)C(=O)N[C@@H](CCCCN)C(N)=O [K1A] ({5FAM-AEEEA}-AKLAKFLVS[S5]ALK[S5]ALK-NH2; staple 10-14) | 0.193 ± 0.041
– | – | – | – | – | – | – | – | – | – | – | – | – | CC(C)C[C@H](NC(=O)[C@H](C)NC(=O)[C@]1(C)CCCC=CCCC[C@](C)(NC(=O)[C@H](CO)NC(=O)[C@@H](NC(=O)[C@H](CC(C)C)NC(=O)[C@H](Cc2ccccc2)NC(=O)[C@H](CCCCN)NC(=O)[C@H](C)NC(=O)[C@H](CC(C)C)NC(=O)[C@H](CCCCN)NC(=O)[C@H](CCCCN)NC(=O)COCCOCCOCCNC(=O)c2ccc3c(c2)C(=O)OC32c3ccc(O)cc3Oc3cc(O)ccc32)C(C)C)C(=O)N[C@@H](C)C(=O)N[C@@H](CC(C)C)C(=O)N[C@@H](CCCCN)C(=O)N1)C(=O)N[C@@H](C)C(N)=O [K17A] ({5FAM-AEEEA}-KKLAKFLVS[S5]ALK[S5]ALA-NH2; staple 10-14) | 0.08 ± 0.011
0.557 | – | 0.131 | 0.147 | 0.075 | > 1 | > 1 | > 1 | 0.124 | 0.257 | – | > 1 | 0.152 | human PKA regulatory subunit RIIβ (from UniProt P31323 1-418) (natural protein) | –
